Measurements published in US20230220104A1.
Where two headings read alike, the source gives them in different places.

Key:
Assay in all cases: cell-based or functional assay
[1] = biological target: human CD73 on cells (H322, MDA-MB-231, HT-144, T cells, CD73-transfected HEK293T) (human) (UniProt P21589)
[2] = biological target: human CD73 on cells (H322, MDA-MB-231, HT-144, T cells, CD73-transfected HEK293T) (human) (UniProt P21589); remark: listed apart in the source
[3] = biological target: human CD73 on cells (H322, MDA-MB-231, HT-144, T cells, CD73-transfected HEK293T) (human) (UniProt P21589); remark: listed apart in the source

Chain of human CD73 on cells (H322, MDA-MB-231, HT-144, T cells, CD73-transfected HEK293T) (human) (P21589 27-549): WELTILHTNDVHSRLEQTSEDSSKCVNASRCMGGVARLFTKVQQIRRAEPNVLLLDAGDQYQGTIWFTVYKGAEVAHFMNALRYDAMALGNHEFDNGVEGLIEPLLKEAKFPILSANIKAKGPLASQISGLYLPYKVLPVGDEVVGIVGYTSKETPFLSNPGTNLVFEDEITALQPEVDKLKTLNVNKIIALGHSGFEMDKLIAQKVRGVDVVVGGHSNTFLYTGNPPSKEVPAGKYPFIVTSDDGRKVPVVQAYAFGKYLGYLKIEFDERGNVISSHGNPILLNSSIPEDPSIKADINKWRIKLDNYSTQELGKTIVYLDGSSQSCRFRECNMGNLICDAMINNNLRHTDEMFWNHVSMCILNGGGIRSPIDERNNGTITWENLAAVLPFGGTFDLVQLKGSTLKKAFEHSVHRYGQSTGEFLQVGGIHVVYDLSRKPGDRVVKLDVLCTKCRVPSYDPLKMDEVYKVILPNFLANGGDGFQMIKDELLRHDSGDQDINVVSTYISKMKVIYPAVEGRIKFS

IC50 of AMP degradation suppressive function, H322 cells [1]: 0.04 mg/L
IC50 of AMP degradation suppressive function (cell line of Table 7 not stated; H322 in FIG. 12) [2]: 0.007 mg/L
IC50 of AMP degradation suppressive function, H322 cells [2]: 0.091 mg/L
IC50 of AMP degradation suppressive function, MDA-MB-231 cells [2]: 0.111 mg/L
IC50 of AMP degradation suppressive function, H322 cells [3]: 0.02 mg/L
Substance: Benchmark antibody (antibody having the same sequences as the published variable regions of MEDI9447)
